Laboratory results from publication PMC9364023, “In vitro single molecule and bulk phase studies reveal the AP-1 transcription factor cFos binds to DNA without its partner cJun” (The Journal of Biological Chemistry, 2022).
Where no end group is shown, it is not given here.

Assays:
[1] = target: cFos bZIP region (137-193) synthetic peptide, C-terminally biotin-tagged (human); assay: Qdot blinking analysis of single molecules on DNA tightropes; Qdot 655 conjugates only; blinks counted in 50 kymographs of 60 s for each protein; dual Poisson model fitted to cJun and cFos together; HSABC buffer; monomer to dimer on DNA
[2] = target: cFos bZIP region (137-193) synthetic peptide, C-terminally biotin-tagged (human); assay: dual-colour single-molecule fluorescence imaging on DNA tightropes; biotinylated peptide conjugated to premixed equimolar streptavidin Qdot 605 and Qdot 655 (100 nM peptide, 200 nM Qdots, diluted 50-fold); bound to Lambda DNA tightropes; HSABC buffer (50 mM Tris pH 7.5, 150 mM KCl, 10 mM MgCl2); room temperature (20 C); dual-coloured spots counted among DNA-bound molecules; monomer to dimer on DNA
[3] = target: the molecule itself; assay: as above

Row | percent dimer (fit of Qdot blinking) [1] [%] | percent of DNA-bound entities that were dual-colored [2] [%] | percent of DNA-bound molecules dimerized [2] [%] | stoichiometry N [2] | Molecule | stoichiometry N [3]
1 | 45.8 | 15 | 30 | 2 | cFos bZIP region (137-193) synthetic peptide, C-terminally biotin-tagged | 
2 |  |  |  |  | cJun bZIP region (252-308) synthetic peptide, C-terminally biotin-tagged (bZIP region of cJun, residues 252-308 as stated; gly-ala-pro spacer before the C-terminal biotin; In the tightrope assays the peptide was conjugated through its biotin to streptavidin-coated Qdot 655 and/or Qdot 605; It holds the bZIP domain only; source: synthetic peptide (PeptideSynthetics)) RIKAERKRMRNRIAASKCRKRKLERIARLEEKVKTLKAQNYELASTANMLREQVAQLGAP-biotin | 2
